From article PMC6468240 come the findings set out here.

In assay [1] the target is recombinant NgAgo-His (Natronobacterium gregoryi). Nature of the assay: SPR.
Assay [2] has as its target recombinant E. coli recA, His-tagged (E. coli) (UniProt P0A7G6). Kind of assay: SPR.

For the substance “recombinant E. coli recA, His-tagged (from UniProt P0A7G6 1-353) (natural protein)”, in assay [1], the Kd worked out at 42.4 nM, the koff was determined as 0.00024 s⁻¹ and the kon stood at 5740 M⁻¹ s⁻¹.

Turning to recombinant NgAgo-His (natural protein), in assay [2], the Kd amounted to 30.6 nM, the koff worked out at 0.000707 s⁻¹ and the kon came out at 23200 M⁻¹ s⁻¹.
